# From the supplement of paper PMC11246515
# ± gives the standard deviation of the averaged measurements.
# Assay: total protein half-life in vivo (active degradation + dilution); higher = more stable protein
# [1] = E. coli NCM3722 delta-clpP delta-lon delta-hslV, growth: N-lim chemostat, doubling time 6 h
# [2] = E. coli NCM3722 delta-clpP, growth: N-lim chemostat, doubling time 6 h
# [3] = E. coli NCM3722 delta-hslV, growth: N-lim chemostat, doubling time 6 h
# [4] = E. coli NCM3722 delta-lon, growth: N-lim chemostat, doubling time 6 h
# [5] = E. coli NCM3722 delta-smpB, growth: N-lim chemostat, doubling time 6 h
# [6] = wild type E. coli NCM3722, growth: C-lim chemostat, doubling time 3 h
# [7] = wild type E. coli NCM3722, growth: C-lim chemostat, doubling time 6 h
# [8] = wild type E. coli NCM3722, growth: C-lim chemostat, doubling time 12 h
# [9] = wild type E. coli NCM3722, growth: N-lim chemostat, doubling time 6 h
# [10] = wild type E. coli NCM3722, growth: N-lim chemostat, doubling time 12 h
# [11] = wild type E. coli NCM3722, growth: P-lim chemostat, doubling time 6 h
# [12] = wild type E. coli NCM3722, growth: P-lim chemostat, doubling time 12 h
Sequence,total protein half-life in vivo [1] [h],total protein half-life in vivo [2] [h],total protein half-life in vivo [3] [h],total protein half-life in vivo [4] [h],total protein half-life in vivo [5] [h],total protein half-life in vivo [6] [h],total protein half-life in vivo [7] [h],total protein half-life in vivo [8] [h],total protein half-life in vivo [9] [h],total protein half-life in vivo [10] [h],total protein half-life in vivo [11] [h],total protein half-life in vivo [12] [h]
MATIDSMNKDTTRLSDGPDWTFDLLDVYLAEIDRVAKLYRLDTYPHQIEVITSEQMMDAYSSVGMPINYPHWSFGKKFIETERLYKHGQQGLAYEIVINSNPCIAYLMEENTITMQALVMAHACYGHNSFFKNNYLFRSWTDASSIVDYLIFARKYITECEERYGVDEVERLLDSCHALMNYGVDRYKRPQKISLQEEKARQKSREEYLQSQVNMLWRTLPKREEEKTVAEARRYPSEPQENLLYFMEKNAPLLESWQREILRIVRKVSQYFYPQKQTQVMNEGWATFWHYTILNHLYDEGKVTERFMLEFLHSHTNVVFQPPYNSPWYSGINPYALGFAMFQDIKRICQSPTEEDKYWFPDIAGSDWLETLHFAMRDFKDESFISQFLSPKVMRDFRFFTVLDDDRHNYLEISAIHNEEGYREIRNRLSSQYNLSNLEPNIQIWNVDLRGDRSLTLRYIPHNRAPLDRGRKEVLKHVHRLWGFDVMLEQQNEDGSIELLERCPPRMGNL,4.27 ± 0.81,2.4 ± 0.062,1.59 ± 0.2,1.41 ± 0.15,1.49 ± 0.034,1.05 ± 0.18,1.49 ± 0.059,1.94 ± 0.49,1.48 ± 0.34,1.65 ± 0.15,1.48 ± 0.55,2.27 ± 0.67
MATIKDVAKRANVSTTTVSHVINKTRFVAEETRNAVWAAIKELHYSPSAVARSLKVNHTKSIGLLATSSEAAYFAEIIEAVEKNCFQKGYTLILGNAWNNLEKQRAYLSMMAQKRVDGLLVMCSEYPEPLLAMLEEYRHIPMVVMDWGEAKADFTDAVIDNAFEGGYMAGRYLIERGHREIGVIPGPLERNTGAGRLAGFMKAMEEAMIKVPESWIVQGDFEPESGYRAMQQILSQPHRPTAVFCGGDIMAMGALCAADEMGLRVPQDVSLIGYDNVRNARYFTPALTTIHQPKDSLGETAFNMLLDRIVNKREEPQSIEVHPRLIERRSVADGPFRDYRR [P0ACP7],5.38 ± 0.92,5.291 ± 0.032,4.538 ± 0.044,5.39 ± 0.36,4.55 ± 0.3,3.02 ± 0.049,5.87 ± 0.35,10.4 ± 1.1,5.02 ± 0.61,7.74 ± 1.6,5.29 ± 0.41,10.9 ± 1.4
MATLKDIAIEAGVSLATVSRVLNDDPTLNVKEETKHRILEIAEKLEYKTSSARKLQTGAVNQHHILAIYSYQQELEINDPYYLAIRHGIETQCEKLGIELTNCYEHSGLPDIKNVTGILIVGKPTPALRAAASALTDNICFIDFHEPGSGYDAVDIDLARISKEIIDFYINQGVNRIGFIGGEDEPGKADIREVAFAEYGRLKQVVREEDIWRGGFSSSSGYELAKQMLAREDYPKALFVASDSIAIGVLRAIHERGLNIPQDISLISVNDIPTARFTFPPLSTVRIHSEMMGSQGVNLVYEKARDGRALPLLVFVPSKLKLRGTTR,5.54 ± 0.078,6.95 ± 1.2,5.31 ± 0.62,5.72 ± 0.54,5.35 ± 0.066,2.89 ± 0.27,5.94 ± 0.29,9.8 ± 0.15,5.07 ± 0.53,,6.01 ± 0.76,13.4 ± 2.6
MATLTAKNLAKAYKGRRVVEDVSLTVNSGEIVGLLGPNGAGKTTTFYMVVGIVPRDAGNIIIDDDDISLLPLHARARRGIGYLPQEASIFRRLSVYDNLMAVLQIRDDLSAEQREDRANELMEEFHIEHLRDSMGQSLSGGERRRVEIARALAANPKFILLDEPFAGVDPISVIDIKRIIEHLRDSGLGVLITDHNVRETLAVCERAYIVSQGHLIAHGTPTEILQDEHVKRVYLGEDFRL [P0A9V1],6.21 ± 0.31,6.33 ± 0.48,5.919 ± 0.031,6.05 ± 0.57,5.51 ± 0.55,2.811 ± 0.004,6.061 ± 0.04,11.2 ± 0.66,5.52 ± 0.24,13.3 ± 0.87,5.46 ± 0.24,12.4 ± 0.82
MATNAKPVYKRILLKLSGEALQGTEGFGIDASILDRMAQEIKELVELGIQVGVVIGGGNLFRGAGLAKAGMNRVVGDHMGMLATVMNGLAMRDALHRAYVNARLMSAIPLNGVCDSYSWAEAISLLRNNRVVILSAGTGNPFFTTDSAACLRGIEIEADVVLKATKVDGVFTADPAKDPTATMYEQLTYSEVLEKELKVMDLAAFTLARDHKLPIRVFNMNKPGALRRVVMGEKEGTLITE [P0A7E9],4.84 ± 0.3,5.18 ± 0.45,4.79 ± 0.38,5.16 ± 0.34,4.49 ± 0.16,3.24 ± 0.27,7 ± 1.2,10.4 ± 1.8,4.93 ± 0.33,8.29 ± 1,5.84 ± 0.27,14.4 ± 0.48
MATNLRGVMAALLTPFDQQQALDKASLRRLVQFNIQQGIDGLYVGGSTGEAFVQSLSEREQVLEIVAEEAKGKIKLIAHVGCVSTAESQQLAASAKRYGFDAVSAVTPFYYPFSFEEHCDHYRAIIDSADGLPMVVYNIPALSGVKLTLDQINTLVTLPGVGALKQTSGDLYQMEQIRREHPDLVLYNGYDEIFASGLLAGADGGIGSTYNIMGWRYQGIVKALKEGDIQTAQKLQTECNKVIDLLIKTGVFRGLKTVLHYMDVVSVPLCRKPFGPVDEKYLPELKALAQQLMQERG [P0A6L4],2.77 ± 0.23,1.88 ± 0.19,3.01,2.66,1.84 ± 0.085,2.81 ± 0.23,3.81 ± 0.35,5.83 ± 1.4,2.28,2.1 ± 0.3,4.43 ± 0.18,8.79
